Molecular target: the molecule itself
Experiment: single molecule photobleaching

B1: Kif15-FL-GFP-His6 (natural protein, human, UniProt Q9NS87 1-1388, looked up)
chain: MAPGCKTELRSVTNGQSNQPSNEGDAIKVFVRIRPPAERSGSADGEQNLCLSVLSSTSLRLHSNPEPKTFTFDHVADVDTTQESVFATVAKSIVESCMSGYNGTIFAYGQTGSGKTFTMMGPSESDNFSHNLRGVIPRSFEYLFSLIDREKEKAGAGKSFLCKCSFIEIYNEQIYDLLDSASAGLYLREHIKKGVFVVGAVEQVVTSAAEAYQVLSGGWRNRRVASTSMNRESSRSHAVFTITIESMEKSNEIVNIRTSLLNLVDLAGSERQKDTHAEGMRLKEAGNINRSLSCLGQVITALVDVGNGKQRHVCYRDSKLTFLLRDSLGGNAKTAIIANVHPGSRCFGETLSTLNFAQRAKLIKNKAVVNEDTQGNVSQLQAEVKRLKEQLAELASGQTPPESFLTRDKKKTNYMEYFQEAMLFFKKSEQEKKSLIEKVTQLEDLTLKKEKFIQSNKMIVKFREDQIIRLEKLHKESRGGFLPEEQDRLLSELRNEIQTLREQIEHHPRVAKYAMENHSLREENRRLRLLEPVKRAQEMDAQTIAKLEKAFSEISGMEKSDKNQQGFSPKAQKEPCLFANTEKLKAQLLQIQTELNNSKQEYEEFKELTRKRQLELESELQSLQKANLNLENLLEATKACKRQEVSQLNKIHAETLKIITTPTKAYQLHSRPVPKLSPEMGSFGSLYTQNSSILDNDILNEPVPPEMNEQAFEAISEELRTVQEQMSALQAKLDEEEHKNLKLQQHVDKLEHHSTQMQELFSSERIDWTKQQEELLSQLNVLEKQLQETQTKNDFLKSEVHDLRVVLHSADKELSSVKLEYSSFKTNQEKEFNKLSERHMHVQLQLDNLRLENEKLLESKACLQDSYDNLQEIMKFEIDQLSRNLQNFKKENETLKSDLNNLMELLEAEKERNNKLSLQFEEDKENSSKEILKVLEAVRQEKQKETAKCEQQMAKVQKLEESLLATEKVISSLEKSRDSDKKVVADLMNQIQELRTSVCEKTETIDTLKQELKDINCKYNSALVDREESRVLIKKQEVDILDLKETLRLRILSEDIERDMLCEDLAHATEQLNMLTEASKKHSGLLQSAQEELTKKEALIQELQHKLNQKKEEVEQKKNEYNFKMRQLEHVMDSAAEDPQSPKTPPHFQTHLAKLLETQEQEIEDGRASKTSLEHLVTKLNEDREVKNAEILRMKEQLREMENLRLESQQLIEKNWLLQGQLDDIKRQKENSDQNHPDNQQLKNEQEESIKERLAKSKIVEEMLKMKADLEEVQSALYNKEMECLRMTDEVERTQTLESKAFQEKEQLRSKLEEMYEERERTSQEMEMLRKQVECLAEENGKLVGHQNLHQKIQYVVRLKKENVRLAEETEKLRAENVFLKEKKRSES
For B1, the “stoichiometry N” value was 2.
